Patent publication US20140120555A1 (PIERRE FABRE MEDICAMENT, published 2014)
Residue numbers refer to the chain shown, from its start. In names and notes the source's numbering stands. Blank lines part the entries; values can stand above or below the binder they belong to.

Columns and labels:
[1] = biological target: T1, Recombinant mouse FcγRI [CD64], Gln25-Pro297 with C-terminal 6-His tag (mouse, UniProt P26151 25-297); experiment: SPR (Biacore X): m-FcγRI injected over c515H7 Mab immobilized on a CM4 sensorchip; heterogeneous ligand model, major component (81%)
T1 construct: range 25-297; Soluble form bought from R&D Systems; also called m-FcγRI
T1 sequence: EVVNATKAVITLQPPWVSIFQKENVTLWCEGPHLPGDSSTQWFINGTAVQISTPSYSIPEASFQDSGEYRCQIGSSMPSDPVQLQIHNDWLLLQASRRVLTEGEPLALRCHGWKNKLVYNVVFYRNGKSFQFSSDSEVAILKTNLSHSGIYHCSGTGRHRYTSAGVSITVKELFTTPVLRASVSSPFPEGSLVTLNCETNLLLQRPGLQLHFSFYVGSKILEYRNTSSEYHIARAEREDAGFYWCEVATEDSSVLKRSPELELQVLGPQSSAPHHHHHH
Procedure: (§1) 2017 RU of c515H7 Mab were immobilized using the amine coupling kit chemistry on the second flowcell (FC2) of a CM4 sensorchip. The first flowcell (FC1) activated by NHS and EDC mixture and des-activated by ethanolamine served as the reference surface to check and subtract the non specific interaction between the analyte (Fc gamma receptors) and the sensorchip matrix.
(§2) The kinetic experiments were carried out at 25° Celsius at a flow rate of 30 μl/min. The HBS-EP buffer was used either as the running buffer or for the preparation of analyte solutions. The analyte solutions were injected during 90 seconds (association phase) with a 90 seconds delay (dissociation phase). An injection of running buffer as analyte was used as a double reference. All the sensorgrams were corrected by this double reference sensorgram.
(§3) After each injection of the analyte, the sensorchip was regenerated by injection of 20 mM NaOH, 75 mM NaCl solution.

[2] = biological target: T2, Recombinant human FcγRI [CD64], Gln16-Pro288 with C-terminal 6-His tag (human, UniProt P12314 16-288); experiment: SPR (Biacore X): h-FcγRI injected over c515H7 Mab immobilized on a CM4 sensorchip; Langmuir model
T2 construct: range 16-288; Soluble form bought from R&D Systems; also called h-FcγRI
T2 sequence (P12314 other isoform, or with tags, fused parts or gaps limits assumed): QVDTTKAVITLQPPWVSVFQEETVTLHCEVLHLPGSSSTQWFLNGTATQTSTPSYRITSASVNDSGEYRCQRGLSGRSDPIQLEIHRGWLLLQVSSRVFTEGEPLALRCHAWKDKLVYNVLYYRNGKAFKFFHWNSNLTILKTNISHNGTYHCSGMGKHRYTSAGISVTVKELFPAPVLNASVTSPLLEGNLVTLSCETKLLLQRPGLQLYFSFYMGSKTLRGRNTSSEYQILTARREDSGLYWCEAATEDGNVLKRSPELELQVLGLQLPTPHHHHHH
Procedure: as §1, §2, §3

[3] = biological target: T3, Recombinant mouse FcγRIII [CD16], Ala31-Thr215 with C-terminal 10-His tag (mouse, UniProt P08508 31-215); experiment: SPR (Biacore X): m-FcγRIII injected over hz515H7VH1D76NVL2 Mab immobilized on a CM4 sensorchip; heterogeneous ligand model, minor component (34%)
T3 construct: Soluble form bought from R&D Systems; also called m-FcγRIII
T3 sequence: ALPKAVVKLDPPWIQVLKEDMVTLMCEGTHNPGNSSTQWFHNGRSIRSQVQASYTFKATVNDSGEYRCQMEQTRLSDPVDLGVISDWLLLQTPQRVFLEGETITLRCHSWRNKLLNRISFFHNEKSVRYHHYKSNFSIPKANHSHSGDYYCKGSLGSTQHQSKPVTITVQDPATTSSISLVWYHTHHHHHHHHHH

[4] = biological target: T4, Recombinant human FcγRIIIA variant V [CD16a], Gln17-Gln208 with C-terminal 6-His tag (human, UniProt P08637 17-208); experiment: SPR (Biacore X): h-FcγRIIIA injected over hz515H7VH1D76NVL2 Mab immobilized on a CM4 sensorchip; heterogeneous ligand model, minor component (21%)
T4 construct: range 17-208; 'variant V' is given without a position, so no substitution is written; also called h-FcγRIIIA
T4 sequence (P08637 other isoform, or with tags, fused parts or gaps mutant limits assumed, form in doubt): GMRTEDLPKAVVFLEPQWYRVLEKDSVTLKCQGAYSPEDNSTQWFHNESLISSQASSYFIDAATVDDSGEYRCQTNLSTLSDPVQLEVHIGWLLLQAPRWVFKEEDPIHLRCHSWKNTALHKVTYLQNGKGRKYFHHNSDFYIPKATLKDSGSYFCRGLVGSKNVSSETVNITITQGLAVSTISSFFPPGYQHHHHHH
Procedure: as §1, with “1964” for “2017”, “hz515H7VH1D76NVL2” for “c515H7”
as §2
Sensorgrams obtained with h-FcγRIIIA [FIG. 16] were clearly not fitted by the Langmuïr model (Chi2/Rmax>20%). […] According to this model, the hz515H7VH1D76NVL2 Mab Fc domain may be regarded as a mixture of two components. […] According to the literature, the heterogeneity observed with h-FcγRIIIA was probably linked to the glycosylation heterogeneity on the Mab Fc domain.

[5] = biological target: T1, Recombinant mouse FcγRI [CD64], …; experiment: SPR (Biacore X), heterogeneous ligand model, m-FcγRI as analyte
Procedure: as §1, with “1964” for “2017”, “hz515H7VH1D76NVL2” for “c515H7”
as §2
According to this model, the hz515H7VH1D76NVL2 Mab Fc domain may be regarded as a mixture of two components.

[6] = biological target: T3, Recombinant mouse FcγRIII [CD16], …; experiment: SPR (Biacore X), Mab on CM4 chip, m-FcγRIII as analyte, Langmuïr model; lower of the two Langmuïr-fit values
Procedure: as §1, with “1964” for “2017”, “hz515H7VH1D76NVL2” for “c515H7”
as §2
Using the Langmuïr model the constant of dissociation was around 17 and 18 nM.

[7] = biological target: T1, Recombinant mouse FcγRI [CD64], …; experiment: SPR (Biacore X), Mab on CM4 chip, m-FcγRI as analyte, heterogeneous ligand model, minor component
Procedure: as §1, with “1964” for “2017”, “hz515H7VH1D76NVL2” for “c515H7”
as §2
After each injection of the analyte, the sensorchip was regenerated by injection of either 20 mM NaOH solution after h-FcγRI and m-FcγRIII or 10 mM NaOH after h-FcγRIIIA and m-FcγRI.

[8] = biological target: T2, Recombinant human FcγRI [CD64], …; experiment: SPR (Biacore X): h-FcγRI injected over hz515H7VH1D76NVL2 Mab immobilized on a CM4 sensorchip; heterogeneous ligand model, minor component (1%)
Procedure: The experiments were carried out using a Biacore X device. The soluble forms of the four Fc […]gamma receptors used in this study were purchased from R&D Systems: […]

Kd [1]: 416 nM | koff [1]: 0.138 s⁻¹ | kon [1]: 332000 M⁻¹ s⁻¹ | Kd [2]: 1.22 nM | koff [2]: 0.000599 s⁻¹ | kon [2]: 493000 M⁻¹ s⁻¹
B1: chimeric antibody c515H7 (antibody, human IgG1, kappa)
heavy: not shown
light: DIVMSQSPSSLAVSAGEKVTMSCKSSQSLFNSRTRKNYLAWYQQKPGQSPKLLIYWASARDSGVPARFTGSGSETYFTLTISRVQAEDLAVYYCMQSFNLRTFGGGTKLEIKRTVAAPSVFIFPPSDEQLKSGTASVVCLLNNFYPREAKVQWKVDNALQSGNSQESVTEQDSKDSTYSLSSTLTLSKADYEKHKVYACEVTHQGLSSPVTKSFNRGEC
notes: Human IgG1/kappa constant domains; also called c515H7 Mab; chimeric 515H7

Kd [3]: 61.4 nM | koff [3]: 0.0299 s⁻¹ | kon [3]: 487000 M⁻¹ s⁻¹ | Kd [4]: 29.3 nM | koff [4]: 0.0155 s⁻¹ | kon [4]: 529000 M⁻¹ s⁻¹ | fold association rate, major versus minor component [5]: 5.7 fold | fold dissociation rate, major versus minor component [5]: 4.8 fold | Kd [6]: ~17 nM | Kd [7]: ~90 nM | Kd [8]: 0.28 nM | koff [8]: 2e-05 s⁻¹ | kon [8]: 72000 M⁻¹ s⁻¹
B2: humanized antibody Hz515H7 VH1 D76N VL2 (antibody, human IgG1, kappa)
heavy: not shown
light: B1 light with S5T, A15L, K18R, V19A, G105Q, L109V
notes: IgG1/kappa; also called hz515H7VL2; hz515H7-1
